Measured values as given in US20220267451A1.

B1: VRDN-1100 (antibody, V domains shown)
VH: QVQLVQSGAEVVKPGASVKLSCKASGYTFTSYWMHWVKQRPGQGLEWIGEINPSNGRTNYNQKFQGKATLTVDKSSSTAYMQLSSLTSEDSAVYYFARGRPDYYGSSKWYFDVWGQGTTVTVSS
VL: DVVMTQTPLSLPVSLGDPASISCRSSQSIVHSNVNTYLEWYLQKPGQSPRLLIYKVSNRFSGVPDRFSGSGAGTDFTLRISRVEAEDLGIYYCFQGSHVPPTFGGGTKLEIKR

Molecular target: recombinant IGF-1R extracellular domain (ECD) (UniProt P08069)
Assay: SPR; antibody captured by immobilized anti-Fc, IGF-1R-ECD as analyte, global fit to single site model

| Kd [nM] | koff [s⁻¹] | kon [M⁻¹ s⁻¹] | Molecule |
| --- | --- | --- | --- |
| 2.2 | 0.00039 | 180000 | teprotumumab (antibody) |
| 0.57 | 5.1e-05 | 88000 | B1 |
